Results on two molecules are retold here after US6090911.

Assay [1] concerns the target T1, B1 basic leucine zipper protein.
T1 sequence: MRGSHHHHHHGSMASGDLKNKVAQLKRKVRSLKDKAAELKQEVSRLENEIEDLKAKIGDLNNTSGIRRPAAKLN
Put plainly: urea denaturation of the equimolar mixture followed by CD at 222 nm, two-state model; ΔGu from lnKd,u (dissociation of the dimers) extrapolated to zero denaturant.

Assay [2] deals with A1 acidic leucine zipper protein. Nature of the assay: analytical ultracentrifugation of protein solutions (24 to 220 µM); self-association of A1 dimers to tetramers; 95% confidence limits printed as (50-112).
Assay [3] has the same target. Put plainly: urea denaturation followed by CD at 222 nm, two-state model; ΔGu from lnKd,u (dissociation of the dimers) extrapolated to zero denaturant.
Assay [4] has the same target. Put plainly: urea denaturation followed by CD at 222 nm; difference in the free energies of unfolding at 50% unfolded.
Assay [5] concerns the target T1, B1 basic leucine zipper protein. Put plainly: urea denaturation of the equimolar mixture followed by CD at 222 nm; difference in the free energies of unfolding at 50% unfolded.
Assay [6] shares this target. Nature of the assay: urea denaturation followed by CD at 222 nm, two-state model; ΔGu from lnKd,u (dissociation of the dimers) extrapolated to zero denaturant.
The target is the same in assay [7]. Nature of the assay: analytical ultracentrifugation of protein solutions (24 to 220 µM); self-association of B1 dimers to tetramers; 95% confidence limits printed as (1-6).
For assay [8] the target is unchanged. Put plainly: urea denaturation followed by CD at 222 nm; difference in the free energies of unfolding at 50% unfolded.

B1: A1 acidic leucine zipper protein (designed binder)
chain: MRGSHHHHHHGSMASGDLENEVAQLEREVRSLEDEAAELEQKVSRLKNEIEDLKAEIGDLNNTSGIRRPAAKLN
Consider B1, for which the ΔGu is 13.8 kcal/mol in assay [1] and 11.5 kcal/mol in assay [3]. The molecule further returned a Dimer-Tetramer Kd in assay [2] of 76 µM. In addition, the ΔΔGu in assay [4] was 0 kcal/mol; in assay [5], 2.75 kcal/mol.

B2: B1 basic leucine zipper protein (designed binder)
chain: T1 sequence
Consider B2, for which, in assay [6], the ΔGu was 12.6 kcal/mol. Further, in assay [7], the Dimer-Tetramer Kd was 123 µM. This molecule returned a ΔΔGu in assay [8] of 0.13 kcal/mol.
